The chains are these.
B1: Drosophila Notch LNR domain fused to split firefly luciferase fragments (LNR–NLuc and LNR–CLuc) [Drosophila melanogaster] / Drosophila Notch LNR domain fused to split firefly luciferase fragments (LNR–NLuc and LNR–CLuc) … (parent)
chain 1: GSGNDRYAADLEQQRAMCDKRGCTEKQGNGICDSDCNTYACNFDGNDCSLGINPWANCTANECWNKFKNGKCNEECNNAACHYDGHDCERKLKSCDSLFDAYCQKHYGDGFCDYGCNNAECSWDGLDCENKTQSPV
chain 2: B1 chain 1

The variants in this assay derive from B1. The assay can be described thus: split-luciferase complementation assay. Conditions: with Drosophila Notch LNR domain fused to split firefly luciferase fragments (LNR–NLuc and LNR–CLuc) [Drosophila melanogaster], S2 cells, n=5, parent: 1, read off a plot.

Consider chain 1 F99A, for which the ratio to parent runs as follows: (bar labelled 'F1563A + WT' (N-Luc / C-Luc)) 0.97; (bar labelled 'WT + F1563A' (N-Luc / C-Luc)) 1.1.
For the variant chain 1 H106A, the ratio to parent (bar labelled 'H1570A + WT' (N-Luc / C-Luc)) was found to be 1 and the ratio to parent (bar labelled 'WT + H1570A' (N-Luc / C-Luc)) was 0.94.

The values above are taken from publication PMC13436963.
